The text below walks through data of US20200216495A1 (ADRX, published 2020).

Values joined by “and” are separate entries in the source; they are usually repeats but may differ in a detail not shown here. Equal entries are not always repeated. Square brackets hold non-standard residues; d marks the D form. Ends that are not written are not given here. dCit = NC(=O)NCCC[C@@H](N)C(=O)O

In the test the target is Tau40 P301L protein (human). The test can be described thus: cell-based or functional assay.

B1: glkirihy (PEPTIDE ID NO: 236) (peptide)
peptide: G[dL][dK][dI][dR][dI][dH][dY]
Take B1: the “IC50, Tau40 assay (ThT)” value came to 960 nM.

B2: lkirifyh (PEPTIDE ID NO: 214) (peptide)
peptide: [dL][dK][dI][dR][dI][dF][dY][dH]
For B2, the “IC50, Tau40 assay (ThT)” value turned out to be 820 nM.

B3: lkirizy (PEPTIDE ID NO: 244) (peptide)
peptide: [dL][dK][dI][dR][dI][dCit][dY]
B3: the “IC50, Tau40 assay (ThT)” value was 1030 nM.

B4: rrlkvrww (PEPTIDE ID NO: 225) (peptide)
peptide: [dR][dR][dL][dK][dV][dR][dW][dW]
In the case of B4, the “IC50, Tau40 assay (ThT)” value stood at 880 nM.

B5: ewrlkvrw (PEPTIDE ID NO: 229) (peptide)
peptide: [dE][dW][dR][dL][dK][dV][dR][dW]
On to B5, for which the “IC50, Tau40 assay (ThT)” value was 900 nM.

B6: rlkirihy (PEPTIDE ID NO: 451) (peptide)
peptide: [dR][dL][dK][dI][dR][dI][dH][dY]
With B6, the “IC50, Tau40 assay (ThT)” value was found to be 510 nM.

B7: wrfkvrw (PEPTIDE ID NO: 226) (peptide)
peptide: [dW][dR][dF][dK][dV][dR][dW]
As for B7, the “IC50, Tau40 assay (ThT)” value was 880 nM.

B8: lkirihyl (PEPTIDE ID NO: 193) (peptide)
peptide: [dL][dK][dI][dR][dI][dH][dY][dL]
As for B8, the “IC50, Tau40 assay (ThT)” value stood at 650 nM.

B9: lrirlhyh (PEPTIDE ID NO: 420) (peptide)
peptide: [dL][dR][dI][dR][dL][dH][dY][dH]
For B9, the “IC50, Tau40 assay (ThT)” value came out at 970 nM.

B10: wklklwww (PEPTIDE ID NO: 14) (peptide)
peptide: [dW][dK][dL][dK][dL][dW][dW][dW]
As to B10, the “IC50, Tau40 assay (ThT)” value came to 940 nM.

B11: lrikirfh (PEPTIDE ID NO: 421) (peptide)
peptide: [dL][dR][dI][dK][dI][dR][dF][dH]
For the molecule B11, the “IC50, Tau40 assay (ThT)” value stood at 970 nM.

B12: fklklrw (PEPTIDE ID NO: 413) (peptide)
peptide: [dF][dK][dL][dK][dL][dR][dW]
Regarding B12, the “IC50, Tau40 assay (ThT)” value is 1050 nM.

B13: wrlkerww (PEPTIDE ID NO: 241) (peptide)
peptide: [dW][dR][dL][dK][dE][dR][dW][dW]
With B13, the “IC50, Tau40 assay (ThT)” value was found to be 1010 nM.

B14: lkirfhy (PEPTIDE ID NO: 211) (peptide)
peptide: [dL][dK][dI][dR][dF][dH][dY]
Consider B14, for which the “IC50, Tau40 assay (ThT)” value was 810 nM.

B15: lririhyh (PEPTIDE ID NO: 239) (peptide)
peptide: [dL][dR][dI][dR][dI][dH][dY][dH]
For the molecule B15, the “IC50, Tau40 assay (ThT)” value turned out to be 1000 nM.

B16: wrlrihm (PEPTIDE ID NO: 453) (peptide)
peptide: [dW][dR][dL][dR][dI][dH][dM]
Turning to B16, the “IC50, Tau40 assay (ThT)” value is 580 nM.

B17: wwrlkvrw (PEPTIDE ID NO: 234) (peptide)
peptide: [dW][dW][dR][dL][dK][dV][dR][dW]
In the case of B17, the “IC50, Tau40 assay (ThT)” value worked out at 930 nM.

B18: lkirimy (PEPTIDE ID NO: 219) (peptide)
peptide: [dL][dK][dI][dR][dI][dM][dY]
Regarding B18, the “IC50, Tau40 assay (ThT)” value was determined as 840 nM.

B19: fklrlrhw (PEPTIDE ID NO: 123) (peptide)
peptide: [dF][dK][dL][dR][dL][dR][dH][dW]
As to B19, the “IC50, Tau40 assay (ThT)” value was determined as 1070 nM.

B20: wrlrvrww (PEPTIDE ID NO: 238) (peptide)
peptide: [dW][dR][dL][dR][dV][dR][dW][dW]
For the molecule B20, the “IC50, Tau40 assay (ThT)” value came out at 1000 nM.

B21: rkirihyh (PEPTIDE ID NO: 227) (peptide)
peptide: [dR][dK][dI][dR][dI][dH][dY][dH]
B21: the “IC50, Tau40 assay (ThT)” value worked out at 890 nM.

B22: lkiwiyyh (PEPTIDE ID NO: 237) (peptide)
peptide: [dL][dK][dI][dW][dI][dY][dY][dH]
For the molecule B22, the “IC50, Tau40 assay (ThT)” value was determined as 970 nM.

B23: klkirihy (PEPTIDE ID NO: 243) (peptide)
peptide: [dK][dL][dK][dI][dR][dI][dH][dY]
Take B23: the “IC50, Tau40 assay (ThT)” value is 1010 nM.

B24: wrlrihw (PEPTIDE ID NO: 101) (peptide)
peptide: [dW][dR][dL][dR][dI][dH][dW]
In the case of B24, the “IC50, Tau40 assay (ThT)” value is 310 nM and 320 nM.

B25: lrlkvrwl (PEPTIDE ID NO: 210) (peptide)
peptide: [dL][dR][dL][dK][dV][dR][dW][dL]
In the case of B25, the “IC50, Tau40 assay (ThT)” value is 810 nM.

B26: fklkikw (PEPTIDE ID NO: 132) (peptide)
peptide: [dF][dK][dL][dK][dI][dK][dW]
On to B26, for which the “IC50, Tau40 assay (ThT)” value is 1080 nM and 1100 nM.

B27: lqfdlqyf (PEPTIDE ID NO: 142) (peptide)
peptide: [dL][dQ][dF][dD][dL][dQ][dY][dF]
Turning to B27, the “IC50, Tau40 assay (ThT)” value is 930 nM and 980 nM.

B28: lkiwikyh (PEPTIDE ID NO: 212) (peptide)
peptide: [dL][dK][dI][dW][dI][dK][dY][dH]
As for B28, the “IC50, Tau40 assay (ThT)” value stood at 810 nM.

B29: wrrkvrww (PEPTIDE ID NO: 220) (peptide)
peptide: [dW][dR][dR][dK][dV][dR][dW][dW]
As to B29, the “IC50, Tau40 assay (ThT)” value came to 850 nM.

B30: fklklrwf (PEPTIDE ID NO: 57) (peptide)
peptide: [dF][dK][dL][dK][dL][dR][dW][dF]
With B30, the “IC50, Tau40 assay (ThT)” value turned out to be 830 nM.

B31: lklrirhh (PEPTIDE ID NO: 415) (peptide)
peptide: [dL][dK][dL][dR][dI][dR][dH][dH]
Turning to B31, the “IC50, Tau40 assay (ThT)” value is 1010 nM.

B32: gwrlkvrw (PEPTIDE ID NO: 209) (peptide)
peptide: G[dW][dR][dL][dK][dV][dR][dW]
modifications: also: all residues D-form, Gly1 is achiral
Consider B32, for which the “IC50, Tau40 assay (ThT)” value came to 790 nM.

B33: lklhlhfh (PEPTIDE ID NO: 434) (peptide)
peptide: [dL][dK][dL][dH][dL][dH][dF][dH]
Turning to B33, the “IC50, Tau40 assay (ThT)” value amounted to 1010 nM.

B34: wrfkfrw (PEPTIDE ID NO: 215) (peptide)
peptide: [dW][dR][dF][dK][dF][dR][dW]
As for B34, the “IC50, Tau40 assay (ThT)” value worked out at 820 nM.

B35: lrlkvrww (PEPTIDE ID NO: 221) (peptide)
peptide: [dL][dR][dL][dK][dV][dR][dW][dW]
Take B35: the “IC50, Tau40 assay (ThT)” value is 850 nM.

B36: lkirihy (PEPTIDE ID NO: 245) (peptide)
peptide: [dL][dK][dI][dR][dI][dH][dY]
On to B36, for which the “IC50, Tau40 assay (ThT)” value is 1040 nM.

B37: rwrlkvrw (PEPTIDE ID NO: 217) (peptide)
peptide: [dR][dW][dR][dL][dK][dV][dR][dW]
As for B37, the “IC50, Tau40 assay (ThT)” value came out at 830 nM.

B38: rlkvrwww (PEPTIDE ID NO: 224) (peptide)
peptide: [dR][dL][dK][dV][dR][dW][dW][dW]
B38: the “IC50, Tau40 assay (ThT)” value was 870 nM.

B39: fkirihyf (PEPTIDE ID NO: 232) (peptide)
peptide: [dF][dK][dI][dR][dI][dH][dY][dF]
B39: the “IC50, Tau40 assay (ThT)” value is 910 nM.

B40: flkirihy (PEPTIDE ID NO: 247) (peptide)
peptide: [dF][dL][dK][dI][dR][dI][dH][dY]
As to B40, the “IC50, Tau40 assay (ThT)” value worked out at 1040 nM.

B41: lkirihlh (PEPTIDE ID NO: 240) (peptide)
peptide: [dL][dK][dI][dR][dI][dH][dL][dH]
With B41, the “IC50, Tau40 assay (ThT)” value was found to be 1000 nM.

B42: hrlkvrwh (PEPTIDE ID NO: 213) (peptide)
peptide: [dH][dR][dL][dK][dV][dR][dW][dH]
Turning to B42, the “IC50, Tau40 assay (ThT)” value was 820 nM.

B43: wrlkvrwf (PEPTIDE ID NO: 218) (peptide)
peptide: [dW][dR][dL][dK][dV][dR][dW][dF]
Turning to B43, the “IC50, Tau40 assay (ThT)” value turned out to be 840 nM.

B44: frlkvrww (PEPTIDE ID NO: 231) (peptide)
peptide: [dF][dR][dL][dK][dV][dR][dW][dW]
In the case of B44, the “IC50, Tau40 assay (ThT)” value was determined as 910 nM.

B45: wwlrihw (PEPTIDE ID NO: 425) (peptide)
peptide: [dW][dW][dL][dR][dI][dH][dW]
Take B45: the “IC50, Tau40 assay (ThT)” value is 940 nM.

B46: wrlkvrwr (PEPTIDE ID NO: 230) (peptide)
peptide: [dW][dR][dL][dK][dV][dR][dW][dR]
For B46, the “IC50, Tau40 assay (ThT)” value is 910 nM.

B47: lkikihy (PEPTIDE ID NO: 233) (peptide)
peptide: [dL][dK][dI][dK][dI][dH][dY]
Take B47: the “IC50, Tau40 assay (ThT)” value was determined as 930 nM.

B48: lkirirfh (PEPTIDE ID NO: 414) (peptide)
peptide: [dL][dK][dI][dR][dI][dR][dF][dH]
For B48, the “IC50, Tau40 assay (ThT)” value is 900 nM.

B49: tlkirihy (PEPTIDE ID NO: 235) (peptide)
peptide: [dT][dL][dK][dI][dR][dI][dH][dY]
In the case of B49, the “IC50, Tau40 assay (ThT)” value was 940 nM.

B50: mrlrihw (PEPTIDE ID NO: 242) (peptide)
peptide: [dM][dR][dL][dR][dI][dH][dW]
B50: the “IC50, Tau40 assay (ThT)” value was found to be 1010 nM.

B51: lkfrihy (PEPTIDE ID NO: 216) (peptide)
peptide: [dL][dK][dF][dR][dI][dH][dY]
Regarding B51, the “IC50, Tau40 assay (ThT)” value came out at 830 nM.

B52: klklrww (PEPTIDE ID NO: 448) (peptide)
peptide: [dK][dL][dK][dL][dR][dW][dW]
B52: the “IC50, Tau40 assay (ThT)” value was 920 nM.

B53: wrlkvrwh (PEPTIDE ID NO: 222) (peptide)
peptide: [dW][dR][dL][dK][dV][dR][dW][dH]
Take B53: the “IC50, Tau40 assay (ThT)” value was found to be 860 nM.

B54: wrlrimw (PEPTIDE ID NO: 452) (peptide)
peptide: [dW][dR][dL][dR][dI][dM][dW]
For B54, the “IC50, Tau40 assay (ThT)” value was found to be 540 nM.

B55: wrmrihw (PEPTIDE ID NO: 246) (peptide)
peptide: [dW][dR][dM][dR][dI][dH][dW]
Regarding B55, the “IC50, Tau40 assay (ThT)” value came to 1040 nM.

B56: lkilihyh (PEPTIDE ID NO: 223) (peptide)
peptide: [dL][dK][dI][dL][dI][dH][dY][dH]
Regarding B56, the “IC50, Tau40 assay (ThT)” value came out at 860 nM.
